Substrate in series [1]: C/C(=N\C#N)N(C)Cc1ccc(Cl)nc1
Nature of the series: LC-MS/MS of metabolites, microsomes with recombinant P450/CPR, Michaelis-Menten fit. In kind it is biochemical, Bombus terrestris. The following applies: NADPH regeneration system, 30 °C, 1 h, substrate 3.1-200 μM, house fly CPR co-expressed.

Substrate in series [2]: N#C/N=C1\SCCN1Cc1ccc(Cl)nc1
The series is described as above. In kind it is biochemical, Bombus terrestris. The following applies: NADPH regeneration system, 30 °C, 1 h, substrate 3.1-200 μM, house fly CPR co-expressed.

The term Km denotes the concentration of substrate that gives half-maximal velocity.

B1: CYP9Q6 (Bombus terrestris audax) (protein)
chain: MEYLSLGLFLIAILIAIYYCATKNHNLFKKHGILHIPPMPLFGNMGSFFAKRSTLQDTILEAYELHPEAKYVGIYESLTPIIVLRDLDLIKSVNMKNFDHFTDHRNFVFKDMDPIFAGMLFSMKGEQWKEQRSILSLAFTSNKVKDMFNLMSECATRYANYLSNLAENEREMEMRDLLTKYTNDVIATCVYGVSVDTIKNPKNVFYTYGKSTTFTSFKKDMAMLAQRNLPWLAKLFQLRFLEKHIAKFFTEQVINTIEERKQNGTYRSDILQLFIDVNDKKVPGKGMSTENMVNHAFSLFFGGTDSVATQTSFLFYLLAENPEILKRLQEEIDETLENNNGQLTYDAIQKMKYLDAMINEAMRLQPITVFLDRLCVKDFELPPALPGEKPFTVKAGMNIWIPVDAIHHDPKHYENPQKFDPDRFLENGKKIINSGAFMPFGLGPRICIGNRFALTEIKVLLCHILAKCNVKIGSKMLLPLQYEEGVITAYAKNGFWLNVEPREHSYCTSQTNGTTKHLSNGNCRN
notes: with NADPH--cytochrome P450 reductase (Musca domestica, house fly)
As to B1, the Km in series [1] was 27.32 µM; in series [2], 15.83 µM.

(Values after paper PMC6675907, “Identification and functional characterisation of a novel N-cyanoamidine neonicotinoid metabolising cytochrome P450, CYP9Q6, from the buff-tailed bumblebee Bombus terrestris” (Insect Biochemistry and Molecular Biology, 2019).)
